According to paper doi:10.1101/2021.07.22.452893 (bioRxiv, 2021):

Tests used:
[1] = biological target: Complement factor H (human) (UniProt P08603); assay: ELISA
PPACK-thrombin = assay: SPR
fibrinogen = biological target: T1, fibrinogen (UniProt P02671-2 20-644; P02675 31-491; P02679-2 27-437); assay: SPR
T1 sequence (looked up) 1: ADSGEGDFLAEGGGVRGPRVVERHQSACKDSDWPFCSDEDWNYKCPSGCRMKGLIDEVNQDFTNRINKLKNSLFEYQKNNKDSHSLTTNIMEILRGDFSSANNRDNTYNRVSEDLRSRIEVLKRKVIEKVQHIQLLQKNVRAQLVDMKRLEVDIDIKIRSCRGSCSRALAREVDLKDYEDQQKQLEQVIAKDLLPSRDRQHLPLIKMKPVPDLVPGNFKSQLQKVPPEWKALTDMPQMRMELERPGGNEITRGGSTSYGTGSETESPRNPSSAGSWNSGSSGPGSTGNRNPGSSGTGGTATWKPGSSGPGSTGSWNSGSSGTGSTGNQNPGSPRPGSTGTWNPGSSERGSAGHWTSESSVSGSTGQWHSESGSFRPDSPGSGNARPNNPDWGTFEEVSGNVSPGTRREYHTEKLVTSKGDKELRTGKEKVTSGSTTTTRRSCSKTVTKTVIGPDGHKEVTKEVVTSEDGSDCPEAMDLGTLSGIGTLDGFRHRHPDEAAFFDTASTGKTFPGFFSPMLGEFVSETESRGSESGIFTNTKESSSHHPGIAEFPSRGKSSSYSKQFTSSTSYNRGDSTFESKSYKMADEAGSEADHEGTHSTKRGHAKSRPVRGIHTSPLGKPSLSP
T1 sequence (looked up) 2: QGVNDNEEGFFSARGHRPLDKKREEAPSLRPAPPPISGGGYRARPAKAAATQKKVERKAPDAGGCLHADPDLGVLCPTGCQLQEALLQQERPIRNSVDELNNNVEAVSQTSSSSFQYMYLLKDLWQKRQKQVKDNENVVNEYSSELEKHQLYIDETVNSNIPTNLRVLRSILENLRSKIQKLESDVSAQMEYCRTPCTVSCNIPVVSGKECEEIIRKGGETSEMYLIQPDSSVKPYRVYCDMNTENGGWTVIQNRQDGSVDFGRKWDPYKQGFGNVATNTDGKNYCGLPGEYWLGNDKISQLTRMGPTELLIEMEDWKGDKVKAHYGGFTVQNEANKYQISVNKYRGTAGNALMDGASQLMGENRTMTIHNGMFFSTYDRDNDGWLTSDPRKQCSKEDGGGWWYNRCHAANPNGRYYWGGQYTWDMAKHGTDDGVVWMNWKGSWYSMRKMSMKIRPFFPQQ
T1 sequence (looked up) 3: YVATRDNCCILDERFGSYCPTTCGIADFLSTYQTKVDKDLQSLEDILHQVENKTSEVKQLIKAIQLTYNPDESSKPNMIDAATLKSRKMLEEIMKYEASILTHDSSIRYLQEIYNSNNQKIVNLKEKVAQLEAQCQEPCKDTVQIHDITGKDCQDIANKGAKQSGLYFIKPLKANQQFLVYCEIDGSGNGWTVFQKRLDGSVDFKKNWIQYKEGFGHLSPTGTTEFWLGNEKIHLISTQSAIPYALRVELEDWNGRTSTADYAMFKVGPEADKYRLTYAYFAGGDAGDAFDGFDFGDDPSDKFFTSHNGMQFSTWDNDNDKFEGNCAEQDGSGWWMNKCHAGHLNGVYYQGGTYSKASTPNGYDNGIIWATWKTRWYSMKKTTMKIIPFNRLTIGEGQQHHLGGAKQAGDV

Molecule	FH-thrombin complex formed in plasma [1]	Kd (PPACK-thrombin)	Kd (fibrinogen)
PPACK-thrombin (enzyme)	62 nM	–	–
Complement factor H (natural protein, human, UniProt P08603 19-1231, looked up) EDCNELPPRRNTEILTGSWSDQTYPEGTQAIYKCRPGYRSLGNVIMVCRKGEWVALNPLRKCQKRPCGHPGDTPFGTFTLTGGNVFEYGVKAVYTCNEGYQLLGEINYRECDTDGWTNDIPICEVVKCLPVTAPENGKIVSSAMEPDREYHFGQAVRFVCNSGYKIEGDEEMHCSDDGFWSKEKPKCVEISCKSPDVINGSPISQKIIYKENERFQYKCNMGYEYSERGDAVCTESGWRPLPSCEEKSCDNPYIPNGDYSPLRIKHRTGDEITYQCRNGFYPATRGNTAKCTSTGWIPAPRCTLKPCDYPDIKHGGLYHENMRRPYFPVAVGKYYSYYCDEHFETPSGSYWDHIHCTQDGWSPAVPCLRKCYFPYLENGYNQNYGRKFVQGKSIDVACHPGYALPKAQTTVTCMENGWSPTPRCIRVKTCSKSSIDIENGFISESQYTYALKEKAKYQCKLGYVTADGETSGSITCGKDGWSAQPTCIKSCDIPVFMNARTKNDFTWFKLNDTLDYECHDGYESNTGSTTGSIVCGYNGWSDLPICYERECELPKIDVHLVPDRKKDQYKVGEVLKFSCKPGFTIVGPNSVQCYHFGLSPDLPICKEQVQSCGPPPELLNGNVKEKTKEEYGHSEVVEYYCNPRFLMKGPNKIQCVDGEWTTLPVCIVEESTCGDIPELEHGWAQLSSPPYYYGDSVEFNCSESFTMIGHRSITCIHGVWTQLPQCVAIDKLKKCKSSNLIILEEHLKNKKEFDHNSNIRYRCRGKEGWIHTVCINGRWDPEVNCSMAQIQLCPPPPQIPNSHNMTTTLNYRDGEKVSVLCQENYLIQEGEEITCKDGRWQSIPLCVEKIPCSQPPQIEHGTINSSRSSQESYAHGTKLSYTCEGGFRISEENETTCYMGKWSSPPQCEGLPCKSPPEISHGVVAHMSDSYQYGEEVTYKCFEGFGIDGPAIAKCLGEKWSHPPSCIKTDCLSLPSFENAIPMGEKKDVYKAGEQVTYTCATYYKMDGASNVTCINSRWTGRPTCRDTSCVNPPTVQNAYIVSRQMSKYPSGERVRYQCRSPYEMFGDEEVMCLNGNWTEPPQCKDSTGKCGPPPPIDNGDITSFPLSVYAPASSVEYQCQNLYQLEGNKRITCRNGQWSEPPKCLHPCVISREIMENYNIALRWTAKQKLYSRTGESVEFVCKRGYRLSSRSHTLRTTCWDGKLEYPTCAKR	–	29.7 nM	38.2 nM
